Among the data in patent US20070010428A1, “Inhibitors of signal transduction and activator of transcription 3” (priority 2004, published 2007) are IC50 and IL-6 stimulated luciferase reporter under the Stat3-responsive alpha2-macroglobulin promoter, HEPG2 cells, peptide values, retold here.

For one assay, the target named is Stat3 (UniProt P40763). Briefly: fluorescence polarization competition. (Fluorescence polarisation rises when a labelled molecule tumbles more slowly, as on binding a larger partner.)
Chain of Stat3 (P40763 whole entry): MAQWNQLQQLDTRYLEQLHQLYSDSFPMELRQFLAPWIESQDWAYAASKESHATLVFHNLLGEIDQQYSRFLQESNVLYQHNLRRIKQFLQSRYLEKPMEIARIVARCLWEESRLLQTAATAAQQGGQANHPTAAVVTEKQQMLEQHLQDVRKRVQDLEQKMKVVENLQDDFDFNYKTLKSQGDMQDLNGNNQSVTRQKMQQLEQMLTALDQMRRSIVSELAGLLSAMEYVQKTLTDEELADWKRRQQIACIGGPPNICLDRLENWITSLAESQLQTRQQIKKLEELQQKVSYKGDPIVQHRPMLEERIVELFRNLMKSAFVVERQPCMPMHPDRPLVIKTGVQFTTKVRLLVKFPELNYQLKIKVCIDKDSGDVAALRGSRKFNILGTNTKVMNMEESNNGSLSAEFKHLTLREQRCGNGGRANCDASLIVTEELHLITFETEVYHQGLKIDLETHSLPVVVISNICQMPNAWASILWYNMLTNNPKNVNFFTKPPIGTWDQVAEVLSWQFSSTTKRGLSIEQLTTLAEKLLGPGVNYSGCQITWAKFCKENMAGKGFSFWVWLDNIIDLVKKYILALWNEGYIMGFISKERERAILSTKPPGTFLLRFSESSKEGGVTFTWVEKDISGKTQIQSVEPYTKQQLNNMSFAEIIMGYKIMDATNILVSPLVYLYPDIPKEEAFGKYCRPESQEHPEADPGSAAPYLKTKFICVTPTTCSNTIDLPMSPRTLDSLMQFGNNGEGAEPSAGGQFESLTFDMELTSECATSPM
The target in assay [1] is Stat3 in IL-6 stimulated HepG2 hepatoma cells (UniProt P40763). Briefly: cell-based or functional assay.
Chain of Stat3 in IL-6 stimulated HepG2 hepatoma cells (P40763 2-770 limits assumed): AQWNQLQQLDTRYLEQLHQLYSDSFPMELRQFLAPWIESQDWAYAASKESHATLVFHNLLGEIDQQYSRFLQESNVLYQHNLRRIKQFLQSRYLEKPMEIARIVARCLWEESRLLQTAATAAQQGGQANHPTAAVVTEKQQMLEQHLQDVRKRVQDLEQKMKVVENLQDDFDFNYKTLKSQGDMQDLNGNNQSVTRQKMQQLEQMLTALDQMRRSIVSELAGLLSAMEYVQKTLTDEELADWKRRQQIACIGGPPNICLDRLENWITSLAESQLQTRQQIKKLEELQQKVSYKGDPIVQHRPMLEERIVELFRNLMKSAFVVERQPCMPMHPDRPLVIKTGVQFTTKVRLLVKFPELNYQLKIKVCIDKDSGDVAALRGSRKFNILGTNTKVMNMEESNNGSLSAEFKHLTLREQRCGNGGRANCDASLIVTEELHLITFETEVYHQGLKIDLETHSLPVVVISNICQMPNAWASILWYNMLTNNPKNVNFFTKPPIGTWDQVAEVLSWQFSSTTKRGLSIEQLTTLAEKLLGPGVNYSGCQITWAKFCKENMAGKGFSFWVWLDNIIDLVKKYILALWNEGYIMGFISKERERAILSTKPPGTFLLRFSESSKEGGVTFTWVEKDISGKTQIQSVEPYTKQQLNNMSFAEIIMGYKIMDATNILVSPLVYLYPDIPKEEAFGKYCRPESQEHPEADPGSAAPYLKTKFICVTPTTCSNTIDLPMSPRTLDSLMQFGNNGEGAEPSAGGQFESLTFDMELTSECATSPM

In general, IC50 refers to the concentration needed to halve the response being measured.

Take “Ac-pTyr-Haic-Gln-Thr-NH2 (10, DRCIV-35B)”: in the assay with Stat3, the IC50 was determined as 0.2 µM. “Ac-pTyr-Leu-Pro-Gln-Thr-Val-mts (peptide)” registered an IL-6 stimulated luciferase reporter under the Stat3-responsive alpha2-macroglobulin promoter, HEPG2 cells, peptide at 50 and 100 µM (% of that of IL-6) in assay [1] of 60 to 70. As for “Ac-pTyr-Leu-methanoPro-Gln-Thr-NH2 (14, DRCIV-39B)”, in the assay with Stat3, the half-maximal inhibitory concentration (IC50) is 0.2 µM.

F2PmCinn-Cha-Pro-Gln-NHBn (8, PM-88D) had an IC50 with Stat3 of 2 µM.

In assay [1], “F2PmCinn-Leu-Pro-Gln-Thr-Val-Ala-Ala-Val-Leu-Leu-Pro-Val-Leu-Leu-Ala-Ala-Pro-NH2 (peptide; the values are: luciferase activity remaining)” came in with an IL-6 stimulated luciferase reporter under the Stat3-responsive alpha2-macroglobulin promoter, HEPG2 cells, peptide at 50 µM of 50% and an IL-6 stimulated luciferase reporter under the Stat3-responsive alpha2-macroglobulin promoter, HEPG2 cells, peptide at 100 µM of 25%. In turn, pCinn-Cha-Pro-Gln-NHBn (7, PM-66D) displayed an IC50 with Stat3 of 0.05 µM. In the assay with Stat3, “pCinn-Cha-methanoPro-Gln-NHBn (15, PM-84D)” came in with a 50% inhibitory concentration (IC50) of 0.11 µM. As for pCinn-Leu-Pro-Gln-Thr-NH2 (5, PM-50D), in the assay with Stat3, the IC50 came to 0.11 µM.

Substance pInd-Cha-Pro-Gln-NHBn (9, PM-67D) showed a half-inhibitory concentration (IC50) in the assay with Stat3 of 0.1 µM.
